This is an account of results in paper doi:10.1101/686790.

Series [1] addresses GST-HP1γ (UniProt P23198 11-183). The series is described as follows: EMSA.
For series [2], the target named is T1, GST-HP1γ-Hinge (UniProt P23198 77-111).
T1 chain: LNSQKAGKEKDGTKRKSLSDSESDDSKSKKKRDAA
The series is described as follows: EMSA.

GST-HP1γ, sequence (P23198 11-183): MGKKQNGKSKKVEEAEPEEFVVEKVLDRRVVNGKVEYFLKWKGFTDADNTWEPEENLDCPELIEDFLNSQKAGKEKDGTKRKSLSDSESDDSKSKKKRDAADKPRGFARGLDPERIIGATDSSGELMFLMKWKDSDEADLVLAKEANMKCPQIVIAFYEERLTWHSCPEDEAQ

Turning to UCUGGCACACAGCCACACGCUCAC (ssRNA) [CACACA], the binding result in series [1] and in series [2] was “binds” each time.
In the case of CGCUUCGGGCUCGCCGCUCGCUUCC (ssRNA) [Scrambled], in series [2], the binding result was “no binding”.
The same measure, in the same setting: under GUGAGCUCCAGGCCAGUGAGAGACCCUGUCUCAA (ssRNA) [GAGAGA] stands “binds”.
